Data taken from patent US20260049141A1 (OSE IMMUNOTHERAPEUTICS, published 2026).

Key:
[1] = molecular target: Human CD28 expressed on Jurkat T cells (human, UniProt P10747 19-220); experiment: cell-based or functional assay
[2] = molecular target: T1, Recombinant human CD28 (bio-techne, reference 342-CD-200) (human, UniProt P10747 19-152); experiment: SPR (Biacore T200), hCD28 immobilized on CM5, antibody flowed at 0-3000 nM, bivalent model fit
T1 construct: Bought protein; also called hCD28 recombinant protein; human recombinant CD28 protein
Procedure: (§1) hCD28 recombinant protein (bio-techne, reference 342-CD-200) was immobilized to the CM5 sensorship at 20 ug/mL in Na Acetate pH5 in the Biacore T200. […] The antigen-antibody association kinetics was followed for 2 minutes, and the dissociation kinetics was followed for 10 minutes. The association and dissociation curves were fit to a bivalent model.

[3] = molecular target: T1, Recombinant human CD28 (bio-techne, …); experiment: SPR (Biacore T200), hCD28 immobilized on CM5, antibody flowed; monovalent anti-CD28 scFv (Format B1), not the bivalent anti-CD28 antibody
Procedure: as §1

[4] = molecular target: T2, Biotinylated human PD-1 (AcroBiosystems, reference EP-101) (human, UniProt Q15116 25-167, biotinylated); experiment: competitive ELISA: recombinant human PD-L1 immobilized, antibody mixed with a fixed concentration of biotinylated human PD-1, streptavidin-peroxidase; blocked ligand PD-L1
T2 construct: Kit reagent; called both biotinylated Human PD1 and Biotin-PD-1Fc; also called Biotin-PD-1Fc; not described
Procedure: (A) PD-1 binding ELISA assay. […] Revelation was performed using an anti-human Fc antibody coupled to peroxidase. Colorimetry was determined at 450 nm using TMB substrate. Data were normalized by the condition anti-PD-1*2 or anti-PD-1*1 at 20 nM; considered as 100% of binding for bivalent and monovalent figure respectively. N=2 independent experiments per condition. (B) Antagonist PD-1/PDL1 ELISA assay. […] Revelation was performed with a streptavidin coupled to peroxidase. Colorimetry was determined at 450 nm using TMB substrate. Percentage of antagonist activity was determined by the formula 100-((DO450 nM*100)/DO450 nM No Ab). N=2 independent experiments. (C) CD28 binding MSD assay. […] Revelation was performed with an anti-human Fc antibody coupled to SulfoTag. Electric signal was determined using MSD system. (D) Cis-activity Jurkat T cell-based bioassay. […] IL-2 secretion was quantified in the culture supernatant after 48 hours of stimulation and data were normalized by the condition without antibody. N=2-7 independent experiments.

T2 sequence (Q15116 25-167): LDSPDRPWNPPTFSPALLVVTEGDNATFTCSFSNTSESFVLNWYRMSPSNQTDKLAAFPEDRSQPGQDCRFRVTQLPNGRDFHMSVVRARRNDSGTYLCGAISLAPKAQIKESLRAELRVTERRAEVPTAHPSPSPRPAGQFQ

B1: Format B1 anti-PD-1*1/anti-CD28*1 scFv clone 2 (bispecific antibody)
chain 1: not shown
chain 2: PAPELLGGPSVFLFPPKPKDTLMISRTPEVTCVVVDVSHEDPEVKFNWYVDGVEVHNAKTKPREEQYASTYRVVSVLTVLHQDWLNGKEYKCKVSNKALPAPIEKTISKAKGQPREPQVYTLPPCRDELTKNQVSLWCLVKGFYPSDIAVEWESNGQPENNYKTTPPVLDSDGSFFLYSKLTVDKSRWQQGNVFSCSVMHEALHNHYTQKSLSLSPGK
VL: DVVMTQSPLSLPVTLGQPASISCRSSQSLVHANTNTYLEWYQQRPGQSPRLLIYKVSNRFSGVPDRFSGSGSGTDFTLKISRVEAEDVGVYYCFQGTHVPNTFGQGTKLEIK
[1]
  IL-2 secretion by PD-1 negative Jurkat T cells (cis-activity bioassay, 100 nM), fold versus no antibody: 4 fold

B2: Format B1 anti-PD-1*1/anti-CD28*1 scFv clone 3 (bispecific antibody)
chain 1: not shown
chain 2: PAPELLGGPSVFLFPPKPKDTLMISRTPEVTCVVVDVSHEDPEVKFNWYVDGVEVHNAKTKPREEQYASTYRVVSVLTVLHQDWLNGKEYKCKVSNKALPAPIEKTISKAKGQPREPQVYTLPPCRDELTKNQVSLWCLVKGFYPSDIAVEWESNGQPENNYKTTPPVLDSDGSFFLYSKLTVDKSRWQQGNVFSCSVMHEALHNHYTQKSLSLSPGK
VL: DVVMTQSPLSLPVTLGQPASISCRSSQSLVHANTNTYLEWYQQRPGQSPRLLIYKVSNRFSGVPDRFSGSGSGTDFTLKISRVEAEDVGVYYCFQGTHVPNTFGQGTKLEIK
[1]
  IL-2 secretion by PD-1 negative Jurkat T cells (cis-activity bioassay, 100 nM), fold versus no antibody: 2 fold

B3: Anti PD-1*1/anti CD28*1 scFv Format B1 (anti-PD-1 clone 1 / anti-CD28 clone 1) (bispecific antibody, V domains shown)
VH 1: QIQLVQSGSELKKPGASVKVSCKASGYTFTHYAMNWVRQAPGQGLEWMGWINTNTGEPTYAQGFTGRFVFSLDTSVSTAYLQISSLKAEDTAVYYCAREREPGMDNWGQGTLVTVSS
VL 1: DVVMTQSPLSLPVTLGQPASISCRSSQSLVHANTNTYLEWYQQRPGQSPRLLIYKVSNRFSGVPDRFSGSGSGTDFTLKISRVEAEDVGVYYCFQGTHVPNTFGQGTKLEIK
VH 2: QVKLQESGPGLVAPSQSLSITCTVSGFSLTSYGVYWVRQPPGKGLEWLGVIWAGGSTNYNSALMSRLSISKDNSKSQVFLKMNSLQTDDTAMYYCARDHYGSYGDYYAMDYWGQGTTVTVSS
VL 2: DIVLTQSPASLAVSLGQRATISCRASESVEYYDTSLMQWYQQKPGQPPKLLIYAASSVESGVPARFSGSGSGTDFSLNIHPVEEDDIAMYFCQQSRKVPWTFGGGTKLEIK
notes: Only the variable domains are tied to the molecule by name; also called anti PD-1/anti CD28 (Format B1); anti-PD-1*1/anti-CD28*1 scFv clone 1
[2]
  Kd: 5400 nM
  koff: 0.0249 s⁻¹
  kon: 4620 M⁻¹ s⁻¹
[3]
  Kd: ~5000 nM
[4]
  IC50 (read off the curve): ~1 nM

B4: anti-PD-1/anti-CD28 multifunctional molecule Format B3 (scFv anti-CD28 fused to C-terminal of monovalent anti-PD1, clone 1) (bispecific antibody, V domains shown)
VH 1: QIQLVQSGSELKKPGASVKVSCKASGYTFTHYAMNWVRQAPGQGLEWMGWINTNTGEPTYAQGFTGRFVFSLDTSVSTAYLQISSLKAEDTAVYYCAREREPGMDNWGQGTLVTVSS
VL 1: DVVMTQSPLSLPVTLGQPASISCRSSQSLVHANTNTYLEWYQQRPGQSPRLLIYKVSNRFSGVPDRFSGSGSGTDFTLKISRVEAEDVGVYYCFQGTHVPNTFGQGTKLEIK
VH 2: QVKLQESGPGLVAPSQSLSITCTVSGFSLTSYGVYWVRQPPGKGLEWLGVIWAGGSTNYNSALMSRLSISKDNSKSQVFLKMNSLQTDDTAMYYCARDHYGSYGDYYAMDYWGQGTTVTVSS
VL 2: DIVLTQSPASLAVSLGQRATISCRASESVEYYDTSLMQWYQQKPGQPPKLLIYAASSVESGVPARFSGSGSGTDFSLNIHPVEEDDIAMYFCQQSRKVPWTFGGGTKLEIK
[4]
  IC50 (read off the curve): ~1 nM

B5: anti-PD-1/anti-CD28 multifunctional molecule Format C1 (bivalent anti-PD-1 antibody fused to an anti-CD28 scFv, clone 1) (bispecific antibody, V domains shown)
VH 1: QIQLVQSGSELKKPGASVKVSCKASGYTFTHYAMNWVRQAPGQGLEWMGWINTNTGEPTYAQGFTGRFVFSLDTSVSTAYLQISSLKAEDTAVYYCAREREPGMDNWGQGTLVTVSS
VL 1: DVVMTQSPLSLPVTLGQPASISCRSSQSLVHANTNTYLEWYQQRPGQSPRLLIYKVSNRFSGVPDRFSGSGSGTDFTLKISRVEAEDVGVYYCFQGTHVPNTFGQGTKLEIK
VH 2: QVKLQESGPGLVAPSQSLSITCTVSGFSLTSYGVYWVRQPPGKGLEWLGVIWAGGSTNYNSALMSRLSISKDNSKSQVFLKMNSLQTDDTAMYYCARDHYGSYGDYYAMDYWGQGTTVTVSS
VL 2: DIVLTQSPASLAVSLGQRATISCRASESVEYYDTSLMQWYQQKPGQPPKLLIYAASSVESGVPARFSGSGSGTDFSLNIHPVEEDDIAMYFCQQSRKVPWTFGGGTKLEIK
notes: Full chains not tied to the label in the text
[4]
  IC50 (read off the curve): ~1 nM

B6: anti-PD-1/anti-CD28 multifunctional molecule Format C2 (bivalent anti-PD-1 antibody fused to an anti-CD28 scFv, clone 1) (bispecific antibody, V domains shown)
VH 1: QIQLVQSGSELKKPGASVKVSCKASGYTFTHYAMNWVRQAPGQGLEWMGWINTNTGEPTYAQGFTGRFVFSLDTSVSTAYLQISSLKAEDTAVYYCAREREPGMDNWGQGTLVTVSS
VL 1: DVVMTQSPLSLPVTLGQPASISCRSSQSLVHANTNTYLEWYQQRPGQSPRLLIYKVSNRFSGVPDRFSGSGSGTDFTLKISRVEAEDVGVYYCFQGTHVPNTFGQGTKLEIK
VH 2: QVKLQESGPGLVAPSQSLSITCTVSGFSLTSYGVYWVRQPPGKGLEWLGVIWAGGSTNYNSALMSRLSISKDNSKSQVFLKMNSLQTDDTAMYYCARDHYGSYGDYYAMDYWGQGTTVTVSS
VL 2: DIVLTQSPASLAVSLGQRATISCRASESVEYYDTSLMQWYQQKPGQPPKLLIYAASSVESGVPARFSGSGSGTDFSLNIHPVEEDDIAMYFCQQSRKVPWTFGGGTKLEIK
notes: See Format C1; full chains not tied to the label in the text
[4]
  IC50 (read off the curve): ~2 nM

B7: anti-PD-1/anti-CD28 multifunctional molecule Format C5 (scFv anti-CD28 fused to C-terminal of bivalent anti-PD1, clone 1) (bispecific antibody, V domains shown)
VH 1: QIQLVQSGSELKKPGASVKVSCKASGYTFTHYAMNWVRQAPGQGLEWMGWINTNTGEPTYAQGFTGRFVFSLDTSVSTAYLQISSLKAEDTAVYYCAREREPGMDNWGQGTLVTVSS
VL 1: DVVMTQSPLSLPVTLGQPASISCRSSQSLVHANTNTYLEWYQQRPGQSPRLLIYKVSNRFSGVPDRFSGSGSGTDFTLKISRVEAEDVGVYYCFQGTHVPNTFGQGTKLEIK
VH 2: QVKLQESGPGLVAPSQSLSITCTVSGFSLTSYGVYWVRQPPGKGLEWLGVIWAGGSTNYNSALMSRLSISKDNSKSQVFLKMNSLQTDDTAMYYCARDHYGSYGDYYAMDYWGQGTTVTVSS
VL 2: DIVLTQSPASLAVSLGQRATISCRASESVEYYDTSLMQWYQQKPGQPPKLLIYAASSVESGVPARFSGSGSGTDFSLNIHPVEEDDIAMYFCQQSRKVPWTFGGGTKLEIK
[4]
  IC50 (read off the curve): ~0.3 nM

B8: anti-CD28 bivalent clone 1 antibody with no anti-PD-1 valency (antibody, V domains shown)
VH: QVKLQESGPGLVAPSQSLSITCTVSGFSLTSYGVYWVRQPPGKGLEWLGVIWAGGSTNYNSALMSRLSISKDNSKSQVFLKMNSLQTDDTAMYYCARDHYGSYGDYYAMDYWGQGTTVTVSS
VL: DIVLTQSPASLAVSLGQRATISCRASESVEYYDTSLMQWYQQKPGQPPKLLIYAASSVESGVPARFSGSGSGTDFSLNIHPVEEDDIAMYFCQQSRKVPWTFGGGTKLEIK
notes: also called bivalent anti-CD28 antibody; Bivalent anti-CD28 (positive control)
[2]
  Kd: 75 nM
  koff: 0.000842 s⁻¹
  kon: 11200 M⁻¹ s⁻¹
